The target in one data set is CaMKIIα hub domain. As to the kind of experiment: mass photometry.
The target of data set [1] is CaMKIIβ full-length hub domain (residues 534-666) (human). Description: mass photometry.
Data set [2] has the same target. Description: crystal structure.
Data set [3] shares this target. Description: mass photometry. This is another data set of the same source.
Data set [4] has the same target. Description: crystal structure. This is another data set of the same source.
The data set “SEC-MALS” deals with the molecule itself. Description: SEC-MALS. (In general: In gel filtration, larger molecules generally elute earlier.)

Where “and” joins values, the source holds several entries; their conditions need not be identical. Identical values can stand only once.

One may read the stoichiometry N as a count of units in the complex or per binding partner. Regarding CaMKIIα hub domain (domain or fragment), in the data set with CaMKIIα hub domain, the stoichiometry N turned out to be 16.
In the case of “CaMKIIβ full-length hub domain (residues 534-666) (domain or fragment)”, the stoichiometry N in data set [1] was 12 and 14 and 16; in data set [2], 14; in data set [3], 14 and 16; in data set [4], 16.

B1: CaMKIIβ hub dimer variant (F585A + L622M) (domain or fragment, human, UniProt Q13554 534-666, looked up)
chain: RKQEIIKTTEQLIEAVNNGDFEAYAKICDPGLTSFEPEALGNLVEGMDFHRAYFENLLAKNSKPIHTTILNPHVHVIGEDAACIAYIRMTQYIDGQGRPRTSQSEETRVWHRRDGKWQNVHFHCSGAPVAPLQ
Regarding B1, the “stoichiometry N” value in the data set “SEC-MALS” worked out at 2.

The values are drawn from paper doi:10.1101/2023.10.09.561517 (bioRxiv, 2023).
